The values that follow come from the emibetuzumab library of Makowski et al. (2022).

B1: VH:VL chains; a variant is named by its letters at X, in order (parent)
chain 1: QVQLVQSGAEVKKPGASVKVSCKASGYTFTDYXMHWVRQAPGQGLEWMGXVNPNXXXTTYNQKFEGRVTMTTDTSTSTAYMELRSLRSDDTAVYYCARXNXLDXWGQGTTVTVSS
chain 2: DIQMTQSPSSLSASVGDRVTITCSVSSSVSSIYLHWYQQKPGKAPKLLIYSTSNLASGVPSRFSGSGSGTDFTLTISSLQPEDFATYYCQVYSGYPLTFGGGTKVEIK

In this series the parent is B1. Nature of the series: yeast display scFab, FACS + sequencing. The gist of the method:
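Non-specific binding was called from deep sequencing of sorted yeast cells displaying a heavy-chain CDR mutant scFab library. Cells labelled with anti-Myc and biotinylated ovalbumin (260 μg/mL in PBSB, 3 h, room temperature) or soluble membrane proteins (130 μg/mL, 20 min on ice) were FACS-sorted, collecting the top 25% and bottom 10% of binders from two replicates. A sequence was positive when present in ≥3 of 4 pooled positive samples and absent from all negatives, and negative under the converse rule.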
In the case of YRARGALV, the non-specific binding call is given as “binds”.
Take YRARGALS: the non-specific binding call is listed as “binds”.
As to DREGDDAV, the non-specific binding call is given as “no binding”.
In the case of VRARGALV, the non-specific binding call was “binds”.
In the case of YRAGGYWY it was “binds”; in that of YRARSSWS, “binds”.
On to YRARSSWD, for which the non-specific binding call is reported as “binds”.
For YRARSSSD, the non-specific binding call was “binds”.
With YRARDDVF, the non-specific binding call is “no binding”.
YRAGTAAA: the non-specific binding call is on record as “binds”.
With FRARGSGA the entry was “binds”.
For the variant YRAKGAAA, the non-specific binding call is listed as “binds”.
In the case of YRAKGAAD, the non-specific binding call is recorded as “binds”.
In the case of YRAKGAAV it was “binds”.
Consider YRAGGVGF, for which the non-specific binding call is “binds”.
Regarding YRAGGVGD, the non-specific binding call is reported as “binds”.
In the case of YRAGGVGS, the non-specific binding call is recorded as “binds”.
Turning to YRAGSSAD, the non-specific binding call is given as “binds”.
As to YRAKGSVD, the non-specific binding call is “binds”.
With VRAGGSGD the entry was “binds”; with SREAADGV, “no binding”; with YREGGFAA, “binds”.
In the case of YRARSALD, the non-specific binding call is reported as “binds”.
In the case of FRARSSGF, the non-specific binding call was “binds”.
Regarding YREGDASD, the non-specific binding call was “no binding”.
For the variant YRARGSWD, the non-specific binding call is “binds”.
YRARGSWS: the non-specific binding call is on record as “binds”.
Take YRARGSVS: the non-specific binding call was “binds”.
As for YRARGSVF, the non-specific binding call is reported as “binds”.
Turning to DREEGSGD, the non-specific binding call is “no binding”.
For the variant YREKGAAA, the non-specific binding call is given as “binds”.
ARAGGSVV: the non-specific binding call is given as “no binding”.
As to YRAGGSSY, the non-specific binding call is “binds”.
On to YREGGSLD, for which the non-specific binding call was “binds”.
Consider YRAGGYVF, for which the non-specific binding call is listed as “binds”.
In the case of YRAGGYVD it was “binds”.
Take YRAGGYVA: the non-specific binding call was “binds”.
In the case of YREKGSAA it was “binds”; in that of DREEGDVV, “no binding”.
With DREEGDAV the entry was “no binding”; with YRAKGYGA, “binds”; with YRARGAAY, “binds”.
For the variant YRARGAAS, the non-specific binding call is reported as “binds”.
In the case of FRAGGSGD, the non-specific binding call is reported as “binds”.
Consider FREGGSGD, for which the non-specific binding call is given as “binds”.
In the case of YRARSSGA it was “binds”; in that of YRARSSGV, “binds”; in that of YRAGGSVA, “binds”.
For DREEGAVY, the non-specific binding call is reported as “no binding”.
In the case of DREEGAVA, the non-specific binding call is given as “no binding”.
For DREEGAVV, the non-specific binding call was “no binding”.
On to VRARGVVA, for which the non-specific binding call is given as “binds”.
As for VRARGAWF, the non-specific binding call is “binds”.
With YRARSAAD, the non-specific binding call is recorded as “binds”.
Consider YRARSAAV, for which the non-specific binding call is reported as “binds”.
YREKDSAD: the non-specific binding call was “no binding”.
FRARGAGS: the non-specific binding call is listed as “binds”.
For the variant FRARGAGA, the non-specific binding call was “binds”.
With FRARGAGV the entry was “binds”; with YREGGFVA, “binds”; with YRAKSAVF, “binds”.
In the case of VRARGSSF it was “binds”.
FRAGGVGV: the non-specific binding call is reported as “binds”.
For the variant VRAGSSWD, the non-specific binding call is on record as “binds”.
For VRARGAGF, the non-specific binding call is recorded as “binds”.
In the case of YRARSAVD, the non-specific binding call was “binds”.
With YRARSAVA, the non-specific binding call was “binds”.
As for YRARSAVY, the non-specific binding call is “binds”.
As for YRARSAVV, the non-specific binding call is recorded as “binds”.
Turning to YRAKGAVV, the non-specific binding call is listed as “binds”.
For YRARGVVV, the non-specific binding call is listed as “binds”.
As to YRARSFGS, the non-specific binding call is “binds”.
As to YRARSFGD, the non-specific binding call was “binds”.
With DREGGVSD, the non-specific binding call is “binds”.
Regarding DREEGFSV, the non-specific binding call is reported as “no binding”.
On to YREKGAGD, for which the non-specific binding call is “binds”.
Regarding VREGSSAA, the non-specific binding call is “binds”.
Turning to SREGGVVV, the non-specific binding call is on record as “binds”.
For ARAKTSWV, the non-specific binding call was “binds”.
In the case of DREGDAVA, the non-specific binding call was “no binding”.
As to YREGGAGV, the non-specific binding call is “binds”.
With SRARGAAA the entry was “binds”; with YRARGSLA, “binds”; with YRARGSLF, “binds”.
On to SRAGGSLY, for which the non-specific binding call is “binds”.
Consider YRARSAGF chain 1 G108D, for which the non-specific binding call was “binds”.
In the case of FRARSAAA it was “binds”; in that of FRARSAAV, “binds”.
For the variant YRARGYVY, the non-specific binding call is reported as “binds”.
With YRAKGALS the entry was “binds”.
With YRAKGALF, the non-specific binding call is given as “binds”.
As for YRAKGALA, the non-specific binding call was “binds”.
For the variant YRARSSAA, the non-specific binding call was “binds”.
Regarding YRARSSAD, the non-specific binding call is recorded as “binds”.
Regarding DREGDYLY, the non-specific binding call is given as “no binding”.
For the variant AREGDAGD, the non-specific binding call was “no binding”.
Turning to YRAKGAWY, the non-specific binding call is “binds”.
In the case of DREEGSWV, the non-specific binding call is “no binding”.
For ARARGSWV, the non-specific binding call was “binds”.
With YRARGAWF the entry was “binds”; with YRARGAWY, “binds”.
Regarding YRARGAWD, the non-specific binding call is “binds”.
With YRARGAWS the entry was “binds”; with YRARGAWV, “binds”; with YREKAAWA, “binds”.
YRATDFVV: the non-specific binding call is listed as “binds”.
In the case of YRAKGSAV it was “binds”; in that of YRAKGSAA, “binds”.
As to YRAKGSAD, the non-specific binding call is reported as “binds”.
As to YRAKGSLD, the non-specific binding call is listed as “binds”.
In the case of YRAKGSLA it was “binds”; in that of YRAGSASD, “binds”.
As for YRARGSSS, the non-specific binding call was “binds”.
As to YRAGGSWF, the non-specific binding call is reported as “binds”.
VREEGDGA: the non-specific binding call is reported as “no binding”.
In the case of YRARSSLY it was “binds”; in that of YRARSSLA, “binds”.
As to YREGDAAD, the non-specific binding call is listed as “no binding”.
On to FREGSAVA, for which the non-specific binding call is reported as “binds”.
On to SREAASGV, for which the non-specific binding call is given as “no binding”.
Turning to YRARGSGY, the non-specific binding call was “binds”.
Take YRARGSGV: the non-specific binding call was “binds”.
In the case of DREEGDWA, the non-specific binding call is recorded as “no binding”.
As for DREEGDWV, the non-specific binding call is “no binding”.
Turning to DREEGVGV, the non-specific binding call is on record as “no binding”.
